Experimental data as given in paper PMC2191820.

Molecular target: T1, Ig/EBP-1 (C/EBP gamma) (mouse, UniProt P53568 1-150)
T1 sequence: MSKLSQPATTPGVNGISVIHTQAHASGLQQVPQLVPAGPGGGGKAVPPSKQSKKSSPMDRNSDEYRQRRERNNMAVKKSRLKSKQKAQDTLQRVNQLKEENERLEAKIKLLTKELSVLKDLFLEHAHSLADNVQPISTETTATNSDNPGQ
Assay: EMSA

B1: A mt13 (dsDNA)
DNA 1: GATCCTGCCCCTCGAGGTTCCCAAGAACAGA
DNA 2: GATCTCTGTTCTTGGGAACCTCGAGGGGCAG
Question: Does B1 bind?
Answer: no binding

B2: oligo A wt (dsDNA)
DNA 1: GATCCTGCCTTAGTCAACTTCCCAAGAACAGA
DNA 2: GATCTCTGTTCTTGGGAAGTTGACTAAGGCAG
Question: Does B2 bind?
Answer: binds
